In patent publication JP2021054739A, “ビオチン改変二量体とフタロシアニン染料とのコンジュゲート” (dated 2021):

What was measured:
[1] = molecular target: T1, CEACAM5 (Recombinant Human CEACAM-5/CD66e Protein) (Homo sapiens, UniProt P06731); test: SPR (Biacore T200), CEA-V2122 on immobilised CEACAM5; format: binding
T1 construct: purchased R&D SYSTEMS
T1 sequence (P06731 35-702): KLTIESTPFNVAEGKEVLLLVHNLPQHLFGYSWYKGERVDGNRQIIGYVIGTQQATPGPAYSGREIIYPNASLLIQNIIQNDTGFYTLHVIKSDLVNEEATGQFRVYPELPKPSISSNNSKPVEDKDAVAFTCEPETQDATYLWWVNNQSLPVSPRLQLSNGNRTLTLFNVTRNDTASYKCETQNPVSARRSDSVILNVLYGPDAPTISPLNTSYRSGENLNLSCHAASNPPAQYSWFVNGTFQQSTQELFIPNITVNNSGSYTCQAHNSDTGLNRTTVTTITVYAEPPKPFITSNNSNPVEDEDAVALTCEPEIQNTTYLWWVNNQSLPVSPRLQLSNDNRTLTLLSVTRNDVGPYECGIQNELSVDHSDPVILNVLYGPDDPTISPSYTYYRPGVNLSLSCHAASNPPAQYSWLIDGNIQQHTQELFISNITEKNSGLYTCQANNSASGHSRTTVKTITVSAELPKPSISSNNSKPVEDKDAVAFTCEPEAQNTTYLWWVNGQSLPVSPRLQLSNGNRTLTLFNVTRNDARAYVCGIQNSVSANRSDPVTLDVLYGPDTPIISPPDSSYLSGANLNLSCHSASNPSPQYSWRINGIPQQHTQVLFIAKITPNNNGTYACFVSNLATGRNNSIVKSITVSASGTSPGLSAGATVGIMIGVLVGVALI

[2] = tested on: CEACAM5 on CEACAM5-positive MKN-45 cells and CEACAM5-negative DLD1 cells [CEACAM5陽性のヒト胃がん由来MKN-45細胞とCEACAM5陰性のヒト結腸がん由来DLD1細胞]; test: Cell staining with FITC-labelled CEA-V2122 (In Cell Analyzer 6000); format: cell-based, human
[3] = SPR, Single-Cycle Kinetics, Bivalent Analyze fit, analyte CEA-V2122 1E-08 M to 6.25E-10 M

B1: CEA-V2122: anti-CEACAM5 scFv joined by amino acid linker GGGGSGGGG to streptavidin variant V2122 (SEQ ID NO: 3) (protein)
chain: QVKLEQSGAEVVKPGASVKLSCKASGFNIKDSYMHWLRQGPGQRLEWIGWIDPENGDTEYAPKFQGKATFTTDTSANTAYLGLSSLRPEDTAVYYCNEGTPTGPYYFDYWGQGTLVTVSSGGGGSGGGGSGGGGSENVLTQSPSSMSVSVGDRVNIACSASSSVPYMHWLQQKPGKSPKLLIYLTSNLASGVPSRFSGSGSGTDYSLTISSVQPEDAATYYCQQRSSYPLTFGGGTKLEIKGGGGSGGGGAEAGITGTWSDQLGDTFIVTAGADGALTGTYENAVGGAESRYVLTGRYDSAPATDGSGTALGWTVAWKNNSKNAHSATTWSGQYVGGADAKINTQWLLTSGTTNANAWKSTLVGHDTFTKVKPSAASHHHHHH
KD (kd1/ka1) ([1]; SPR, Single-Cycle Kinetics, Bivalent Analyze fit, KD = kd1/ka1): 1.078E-12 | ka1 [1, 3]: 3.208E+5 | kd1 [1, 3]: 3.461E-7 | binding to CEACAM5 (in words) ([1]; from sensorgram and KD value, Fig. 3): 強く結合する

B2: CEA-V2122-FITC: CEA-V2122 labelled with FITC (Fluorescein Labeling Kit - NH2) (conjugate)
chain: QVKLEQSGAEVVKPGASVKLSCKASGFNIKDSYMHWLRQGPGQRLEWIGWIDPENGDTEYAPKFQGKATFTTDTSANTAYLGLSSLRPEDTAVYYCNEGTPTGPYYFDYWGQGTLVTVSSGGGGSGGGGSGGGGSENVLTQSPSSMSVSVGDRVNIACSASSSVPYMHWLQQKPGKSPKLLIYLTSNLASGVPSRFSGSGSGTDYSLTISSVQPEDAATYYCQQRSSYPLTFGGGTKLEIKGGGGSGGGGAEAGITGTWSDQLGDTFIVTAGADGALTGTYENAVGGAESRYVLTGRYDSAPATDGSGTALGWTVAWKNNSKNAHSATTWSGQYVGGADAKINTQWLLTSGTTNANAWKSTLVGHDTFTKVKPSAASHHHHHH
recognition of CEACAM5 on the cell membrane surface (in words) ([2]; 20 nM CEA-V2122-FITC, 4℃, 30 min, Fig. 5): 細胞膜表面のCEACAM5を特異的に認識する | behaviour of CEACAM5 after CEA-V2122-FITC binding (in words) ([2]; MKN45 cells, time series, Fig. 6): 細胞膜表面に滞留する
